Source: article PMC8865267 (mAbs, 2022)
Read-outs that look alike come from different tables or passages of the source.

Experiments:
[1] = biological target: human CTLA-4 with C-terminal Myc, poly-histidine and BirA biotinylation tag (Homo sapiens (Human).) (UniProt P16410); test: SPR
[2] = biological target: CTLA-4 on BW cells expressing ~2,000 CTLA-4 receptor copies (Homo sapiens (Human)., UniProt P16410); test: flow cytometry on cells
[3] = biological target: CTLA-4 of activated primary human CD4+CD25+ T cells (human (endogenous in primary CD4+CD25+ …, UniProt P16410)); test: flow cytometry on cells
Sequence of CTLA-4 of activated primary human CD4+CD25+ T cells (human (P16410 36-223): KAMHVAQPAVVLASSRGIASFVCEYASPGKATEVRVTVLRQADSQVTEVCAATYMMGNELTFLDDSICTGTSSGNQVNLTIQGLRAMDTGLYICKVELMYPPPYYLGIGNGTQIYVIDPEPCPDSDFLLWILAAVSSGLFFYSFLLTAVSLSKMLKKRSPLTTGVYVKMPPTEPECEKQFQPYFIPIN

[4] = biological target: T1, human CTLA-4 with C-terminal poly-histidine tag (crystallography construct) (human, UniProt P16410, glycans trimmed with EndoH); test: crystal structure
T1 sequence (P16410 36-161): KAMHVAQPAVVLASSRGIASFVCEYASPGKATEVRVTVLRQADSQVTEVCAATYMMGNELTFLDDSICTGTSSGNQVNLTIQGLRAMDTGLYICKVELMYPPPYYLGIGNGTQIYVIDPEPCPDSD

[5] = biological target: T1, human CTLA-4 with C-terminal …; test: crystal structure; remark: listed apart in the source

Sequence of CTLA-4 on BW cells expressing ~2,000 CTLA-4 receptor copies (P16410 36-223): as the sequence (P16410 36-223) above
Sequence of ipilimumab Fab (P16410 36-161): as the sequence (P16410 36-161) above

Row | Molecule | binding result [2] | binding result [3] | other results
1 | ipilimumab Fab |  |  | Kd [1]: 40 nM
2 | Ipi.105 IgG1, non-fucosylated (antibody, V domains shown) VH: QVQLVESGGGVVQPGRSLRLSCAASGFTFSHYTMHWVRQAPGKGLEWVTFISYDGHNKYYADSVKGRFTISRDNSKNTLYLQMNSLRAEDTAIYYCARTGWLGPFDYWGQGTLVTVSS VL: EIVLTQSPGTLSLSPGERATLSCRASQEVGESELAWYQQKPGQAPRLLIYGAFSRATGIPDRFSGSGSGTDFTLTISRLEPEDFAVYYCQQYGSSPWTFGQGTKVEIK | binds | binds | 
3 | Ipi.106 IgG1, non-fucosylated (antibody, V domains shown) VH: QVQLVESGGGVVQPGRSLRLSCAASGFTFSHYTMHWVRQAPGKGLEWVTFISYDGHNKYYADSVKGRFTISRDNSKNTLYLQMNSLRAEDTAIYYCARHGWLGPFDYWGQGTLVTVSS VL: EIVLTQSPGTLSLSPGERATLSCRASQEVGESELAWYQQKPGQAPRLLIYGAFSRATGIPDRFSGSGSGTDFTLTISRLEPEDFAVYYCQQYGSSPWTFGQGTKVEIK | binds | binds | 
4 | Ipi.105 Fab (Fab, V domains shown) VH: QVQLVESGGGVVQPGRSLRLSCAASGFTFSHYTMHWVRQAPGKGLEWVTFISYDGHNKYYADSVKGRFTISRDNSKNTLYLQMNSLRAEDTAIYYCARTGWLGPFDYWGQGTLVTVSS VL: EIVLTQSPGTLSLSPGERATLSCRASQEVGESELAWYQQKPGQAPRLLIYGAFSRATGIPDRFSGSGSGTDFTLTISRLEPEDFAVYYCQQYGSSPWTFGQGTKVEIK |  |  | binding result [4]: binds
5 | Ipi.106 Fab (Fab, V domains shown) VH: QVQLVESGGGVVQPGRSLRLSCAASGFTFSHYTMHWVRQAPGKGLEWVTFISYDGHNKYYADSVKGRFTISRDNSKNTLYLQMNSLRAEDTAIYYCARHGWLGPFDYWGQGTLVTVSS VL: EIVLTQSPGTLSLSPGERATLSCRASQEVGESELAWYQQKPGQAPRLLIYGAFSRATGIPDRFSGSGSGTDFTLTISRLEPEDFAVYYCQQYGSSPWTFGQGTKVEIK |  |  | binding result [5]: binds
